Source: the supplement of paper PMC9732359
± gives the uncertainty stated by the source.

Experiment: protein stability index of a GFP-peptide fusion (yeast GPS) (PSI 1-4); higher = more stable; sorted into four equal gates, so the index is relative within each strain
Method in brief: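 Sequencing reads from sorted gates were used to score each peptide. The library consisted of tiled 17-residue yeast protein peptides fused downstream of GFP on a Cherry-expressing plasmid, pooled and carried in yeast. Mid-log cultures in leucine-free medium were split into four equal gates by GFP/Cherry ratio, and each gate's plasmids were PCR-amplified and Illumina-sequenced. The protein stability index adds up, over all gates, the read frequency multiplied by the gate number.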

## STKELKFSDIIQGISKM [BRN1]
doa10∆
  protein stability index: 3.16 ± 0.098
pdr5∆
  protein stability index: 3.33 ± 0.084
san1∆
  protein stability index: 3.18 ± 0.072
ubr1∆
  protein stability index: 3.35 ± 0.085

## KQSGFGGQTKPVFHKKA [RPL42A]
doa10∆
  protein stability index: 2.74 ± 0.04
pdr5∆
  protein stability index: 3.14 ± 0.053
san1∆
  protein stability index: 2.89 ± 0.043
ubr1∆
  protein stability index: 3.045 ± 0.029

## LPVMESLDSCTAAFTAM [YJR042W/NUP85]
doa10∆
  protein stability index: 2.65 ± 0.085
pdr5∆
  protein stability index: 2.37 ± 0.066
san1∆
  protein stability index: 2.54 ± 0.071
ubr1∆
  protein stability index: 2.37 ± 0.071

## KLREKVNDVELAFKKNE [MTW1]
doa10∆
  protein stability index: 3.1 ± 0.13
pdr5∆
  protein stability index: 3.02 ± 0.13
san1∆
  protein stability index: 3 ± 0.15
ubr1∆
  protein stability index: 3.06 ± 0.21

## LYFEIIHGVLKNVDREV [FAS2]
doa10∆
  protein stability index: 3.04 ± 0.09
pdr5∆
  protein stability index: 2.04 ± 0.099
san1∆
  protein stability index: 2.63 ± 0.13
ubr1∆
  protein stability index: 1.64 ± 0.18

## ARQFGYVILTTSAGIMD [RPS22A]
doa10∆
  protein stability index: 1.37 ± 0.048
pdr5∆
  protein stability index: 1.33 ± 0.045
san1∆
  protein stability index: 1.17 ± 0.094
ubr1∆
  protein stability index: 1.25 ± 0.037

## MPRLEEIDDFNDIDDLD [SEC65]
doa10∆
  protein stability index: 2.71 ± 0.1
pdr5∆
  protein stability index: 3.09 ± 0.1
san1∆
  protein stability index: 2.9 ± 0.088
ubr1∆
  protein stability index: 3.23 ± 0.12

## FEIDDEHRIRVFFDKRI [RPS6A]
doa10∆
  protein stability index: 1.88 ± 0.089
pdr5∆
  protein stability index: 3.02 ± 0.12
san1∆
  protein stability index: 2.17 ± 0.13
ubr1∆
  protein stability index: 2.94 ± 0.16

## EHNPSAHTASVGVVFGS [COR1]
doa10∆
  protein stability index: 3.21 ± 0.16
pdr5∆
  protein stability index: 3.24 ± 0.13
san1∆
  protein stability index: 2.88 ± 0.14
ubr1∆
  protein stability index: 2.22 ± 0.27

## IHKIQNDNNLKKLESQE [RPN5]
doa10∆
  protein stability index: 3.08 ± 0.2
pdr5∆
  protein stability index: 3 ± 0.17
san1∆
  protein stability index: 2.85 ± 0.11

## SNSVFSPDGRNFQVEYA [PRE10]
doa10∆
  protein stability index: 3.04 ± 0.057
pdr5∆
  protein stability index: 2.91 ± 0.059
san1∆
  protein stability index: 2.87 ± 0.049
ubr1∆
  protein stability index: 2.79 ± 0.054

## TTTRIQSQQAQPSDVMF [MED2]
doa10∆
  protein stability index: 2.91 ± 0.061
pdr5∆
  protein stability index: 2.79 ± 0.057
san1∆
  protein stability index: 3 ± 0.063
ubr1∆
  protein stability index: 2.87 ± 0.043

## RGSSSLYTLVINDAGKA [RPL38]
doa10∆
  protein stability index: 1.57 ± 0.061
pdr5∆
  protein stability index: 1.26 ± 0.068
san1∆
  protein stability index: 1.17 ± 0.13
ubr1∆
  protein stability index: 1.12 ± 0.086

## TKIKDAEEDSLLSGEDL [YJL039C/NUP192]
doa10∆
  protein stability index: 3.35 ± 0.16
pdr5∆
  protein stability index: 3.45 ± 0.086
san1∆
  protein stability index: 3.14 ± 0.16
ubr1∆
  protein stability index: 3.38 ± 0.12

## SDIIILKGEIEDYPMSS [SIR4]
san1∆
  protein stability index: 3.12 ± 0.24
ubr1∆
  protein stability index: 3.48 ± 0.16

## VCFNNLVDENTDYLYRR [YCS4]
doa10∆
  protein stability index: 2.61 ± 0.067
pdr5∆
  protein stability index: 2.56 ± 0.05
san1∆
  protein stability index: 2.48 ± 0.081
ubr1∆
  protein stability index: 2.08 ± 0.037

## LMKCCHEAYSIIEKITD [RRP45]
doa10∆
  protein stability index: 2.56 ± 0.067
pdr5∆
  protein stability index: 2.68 ± 0.09
san1∆
  protein stability index: 2.56 ± 0.086
ubr1∆
  protein stability index: 2.52 ± 0.18

## SQQAGLDPYERAIYSYL [YDL116W/NUP84]
doa10∆
  protein stability index: 2.81 ± 0.12
pdr5∆
  protein stability index: 3.19 ± 0.083
ubr1∆
  protein stability index: 2.83 ± 0.099

## NLLKVSVDICNNSKSRY [ECM29]
doa10∆
  protein stability index: 2.04 ± 0.07
pdr5∆
  protein stability index: 2.2 ± 0.066
san1∆
  protein stability index: 2.9 ± 0.052
ubr1∆
  protein stability index: 2.02 ± 0.054

## SAGQPNLLLSASRDKTL [ASC1]
doa10∆
  protein stability index: 2.4 ± 0.063
pdr5∆
  protein stability index: 2.77 ± 0.05
san1∆
  protein stability index: 2.7 ± 0.041
ubr1∆
  protein stability index: 1.91 ± 0.049

## TKLDQVWGSETVASSKV [RPL4A]
doa10∆
  protein stability index: 2.72 ± 0.075
pdr5∆
  protein stability index: 3 ± 0.1
san1∆
  protein stability index: 2.84 ± 0.05
ubr1∆
  protein stability index: 2.98 ± 0.044

## QQAQARLQQGRRLPMTM [SNF2]
doa10∆
  protein stability index: 3.1 ± 0.065
pdr5∆
  protein stability index: 3.15 ± 0.055
san1∆
  protein stability index: 3.24 ± 0.035
ubr1∆
  protein stability index: 3.22 ± 0.048

## GKHLSYQRSKRVNNPNV [RPL33A]
doa10∆
  protein stability index: 2.32 ± 0.047
pdr5∆
  protein stability index: 1.92 ± 0.038
san1∆
  protein stability index: 2.01 ± 0.069
ubr1∆
  protein stability index: 2.78 ± 0.041

## TKSKEQLASQLVDLKKE [RPL35A]
san1∆
  protein stability index: 3.12 ± 0.098
ubr1∆
  protein stability index: 3.2 ± 0.17

## KSLDAETEAEEDHMLKK [RPO21]
doa10∆
  protein stability index: 3.15 ± 0.29
pdr5∆
  protein stability index: 2.56 ± 0.21
san1∆
  protein stability index: 3.19 ± 0.1
ubr1∆
  protein stability index: 3.16 ± 0.094

## NEVCLEKENRFEIVDRE [SMC4]
doa10∆
  protein stability index: 2.62 ± 0.089
pdr5∆
  protein stability index: 2.92 ± 0.11
san1∆
  protein stability index: 3.1 ± 0.1
ubr1∆
  protein stability index: 3.3 ± 0.082

## DLLKLVHLSNGYKMIPG [FAS1]
doa10∆
  protein stability index: 2.3 ± 0.057
pdr5∆
  protein stability index: 2.46 ± 0.055
san1∆
  protein stability index: 2.14 ± 0.064
ubr1∆
  protein stability index: 2.24 ± 0.039

## GLSAREAVKQAAKIIYL [PRE10]
doa10∆
  protein stability index: 2.86 ± 0.096
pdr5∆
  protein stability index: 2.59 ± 0.063
san1∆
  protein stability index: 2.59 ± 0.1
ubr1∆
  protein stability index: 2.52 ± 0.053

## DLTGSEPIKEIIDNWEK [FAS1]
pdr5∆
  protein stability index: 2.79 ± 0.15
ubr1∆
  protein stability index: 3.07 ± 0.16

## IEDLRADINSNRLSNPQ [YOR098C/NUP1]
doa10∆
  protein stability index: 2.64 ± 0.09
pdr5∆
  protein stability index: 2.8 ± 0.076
san1∆
  protein stability index: 2.72 ± 0.06
ubr1∆
  protein stability index: 2.93 ± 0.061

## VGRRAANLRVLNSYWVN [RPL15A]
doa10∆
  protein stability index: 1.97 ± 0.062
pdr5∆
  protein stability index: 1.71 ± 0.072
san1∆
  protein stability index: 1.91 ± 0.11
ubr1∆
  protein stability index: 1.69 ± 0.07

## LPKVRIRTRRAAELLDK [DIS3]
doa10∆
  protein stability index: 1.78 ± 0.096
pdr5∆
  protein stability index: 1.48 ± 0.088
san1∆
  protein stability index: 1.3 ± 0.17
ubr1∆
  protein stability index: 1.28 ± 0.072

## KDQYVPEVSALDLSRSN [RPS17A]
doa10∆
  protein stability index: 2.16 ± 0.14
pdr5∆
  protein stability index: 2.2 ± 0.1
san1∆
  protein stability index: 2.02 ± 0.12
ubr1∆
  protein stability index: 2.2 ± 0.065

## FIGRLPIMLRSKNCYLS [RPB2]
doa10∆
  protein stability index: 1.43 ± 0.072
pdr5∆
  protein stability index: 1.58 ± 0.081
san1∆
  protein stability index: 1.17 ± 0.14
ubr1∆
  protein stability index: 1.19 ± 0.054

## PSVAAEYVYFFNNTSVI [RPC40]
doa10∆
  protein stability index: 2.09 ± 0.056
pdr5∆
  protein stability index: 1.48 ± 0.057
san1∆
  protein stability index: 1.54 ± 0.088
ubr1∆
  protein stability index: 1.79 ± 0.039

## VVSCSQHGFEVQVGPMK [RPB7]
doa10∆
  protein stability index: 3.09 ± 0.12
pdr5∆
  protein stability index: 3.15 ± 0.098
san1∆
  protein stability index: 3.02 ± 0.089
ubr1∆
  protein stability index: 3.23 ± 0.12

## LPNEMSQNDGFVIIRGS [RPO31]
doa10∆
  protein stability index: 3.07 ± 0.19
pdr5∆
  protein stability index: 3.13 ± 0.16
san1∆
  protein stability index: 3.23 ± 0.18

## VPVRSFKGHSHIVQDCT [ASC1]
doa10∆
  protein stability index: 2.5 ± 0.073
pdr5∆
  protein stability index: 3.11 ± 0.064
san1∆
  protein stability index: 2.91 ± 0.081
ubr1∆
  protein stability index: 2.83 ± 0.049

## YQLYTSNPSGNYTGWKA [PRE9]
doa10∆
  protein stability index: 2.9 ± 0.065
pdr5∆
  protein stability index: 3.08 ± 0.065
san1∆
  protein stability index: 3.14 ± 0.055
ubr1∆
  protein stability index: 3.17 ± 0.04

## IKVTVQLKIQNRQAAAS [RPL12A]
doa10∆
  protein stability index: 1.57 ± 0.052
pdr5∆
  protein stability index: 2 ± 0.052
san1∆
  protein stability index: 1.75 ± 0.1
ubr1∆
  protein stability index: 2.16 ± 0.04

## PTVKYNRKVRAGRGFTL [RPL13A]
doa10∆
  protein stability index: 2.62 ± 0.059
pdr5∆
  protein stability index: 2.87 ± 0.058
san1∆
  protein stability index: 2.94 ± 0.045
ubr1∆
  protein stability index: 2.78 ± 0.053

## GRRLSMLASQANGGSTI [DSN1]
doa10∆
  protein stability index: 2.1 ± 0.057
pdr5∆
  protein stability index: 2.7 ± 0.074
san1∆
  protein stability index: 2.42 ± 0.071
ubr1∆
  protein stability index: 2.29 ± 0.047

## QGTNSVPNSIGNIFSNI [SNF5]
doa10∆
  protein stability index: 2.91 ± 0.068
pdr5∆
  protein stability index: 3.12 ± 0.095
san1∆
  protein stability index: 3.15 ± 0.12
ubr1∆
  protein stability index: 2.98 ± 0.052

## YLYCLDNNITEMLEENF [YCG1]
doa10∆
  protein stability index: 2.3 ± 0.05
pdr5∆
  protein stability index: 2.32 ± 0.046
san1∆
  protein stability index: 2.63 ± 0.05
ubr1∆
  protein stability index: 2.73 ± 0.039

## LNDVVSFLFSAIPLQQV [SWI1]
doa10∆
  protein stability index: 1.83 ± 0.044
pdr5∆
  protein stability index: 2.08 ± 0.039
san1∆
  protein stability index: 1.94 ± 0.057
ubr1∆
  protein stability index: 1.75 ± 0.026

## ISKTVRFNVVKVSAAAG [RPS11A]
doa10∆
  protein stability index: 3.19 ± 0.17
pdr5∆
  protein stability index: 1.6 ± 0.13
ubr1∆
  protein stability index: 1.64 ± 0.11

## IYNELSYELIKEECQIE [CSN9]
doa10∆
  protein stability index: 2.47 ± 0.08
pdr5∆
  protein stability index: 2.66 ± 0.06
san1∆
  protein stability index: 2.73 ± 0.057
ubr1∆
  protein stability index: 3 ± 0.048

## IDRPKHELSRAELEELE [SMD2]
doa10∆
  protein stability index: 3.27 ± 0.083
pdr5∆
  protein stability index: 3.27 ± 0.15
san1∆
  protein stability index: 3.32 ± 0.07
ubr1∆
  protein stability index: 3.38 ± 0.1

## YYLWTGKQVFSLLIKPN [RPO31]
doa10∆
  protein stability index: 1.53 ± 0.21
ubr1∆
  protein stability index: 1.59 ± 0.2

## YSKAKYPDLQPFVLAEN [CDC53]
doa10∆
  protein stability index: 2.3 ± 0.095
pdr5∆
  protein stability index: 2.72 ± 0.063
san1∆
  protein stability index: 2.13 ± 0.07
ubr1∆
  protein stability index: 2.26 ± 0.078

## LGYTHIAINFTVNHSEK [RPP1]
doa10∆
  protein stability index: 1.35 ± 0.038
pdr5∆
  protein stability index: 1.25 ± 0.036
san1∆
  protein stability index: 1.56 ± 0.062
ubr1∆
  protein stability index: 1.41 ± 0.042

## WKLLNQLVLRGLLSQAI [YJR042W/NUP85]
doa10∆
  protein stability index: 2.01 ± 0.18
pdr5∆
  protein stability index: 1.3 ± 0.076
san1∆
  protein stability index: 1.28 ± 0.11
ubr1∆
  protein stability index: 1.17 ± 0.1
